Set-up in all cases: species or system nude mice (Balb/c Nude)
In experiment [1] the test system is human gastric cancer NCI-N87 tumor cell transplant mouse model. Nature of the experiment: Dose-dependent in vivo anti-tumor effect, NCI-N87 transplant mouse model (Example 11). Particulars: NCI-N87 xenograft, 1 mg/kg IV Q2W, day 28. How it is done: In order to further study the inhibitory effect of antibody-drug conjugate on tumors formed in vivo, the Trop-2 positive tumor cell human gastric cancer NCI-N87 tumor cell transplant mouse model was used to evaluate the inhibitory effect of candidate molecule on tumor proliferation in vivo. 5×10^6 NCI-N87 cells were injected subcutaneously into 6-week-old nude mice (Balb/c Nude) weighing about […]. After 8 days, the average tumor volume reached 175 mm^3 and grouping was performed, and the antibody-drug conjugate was started to be injected intravenously every 2 weeks at a dose of 2 mg/kg or 1 mg/kg. The control used human IgGI isotype control antibody at a dose of 2 mg/kg. There were 5 mice in each group of the control group or the administration group. The tumor inhibition rate was calculated by measuring the tumor volume.

Experiment [2] concerns human head and neck cancer squamous cell carcinoma FaDu tumor cell transplant mouse model. Kind of experiment: In vivo efficacy, FaDu transplant mouse model. Particulars: FaDu xenograft, day 17. How it is done:
In order to further study the inhibitory effect of antibody-drug conjugate on tumors formed in vivo, the Trop-2 positive tumor cell human head and neck cancer squamous cell carcinoma FaDu tumor cell transplant mouse model was used to evaluate the inhibitory effect of candidate molecule on tumor proliferation in vivo. The cell suspension mixed with Matrigel in equal proportions was added, and 5×10^6 FaDu cells per animal were injected subcutaneously into 6-week-old nude mice (Balb/c Nude) weighing about […]. After 8 days, the average tumor volume reached 133 mm^3 and grouping was performed, and the antibody-drug conjugate was started to be injected intravenously at a single dose of 3 mg/kg or 1 mg/kg. The control used human IgGI isotype control antibody at a dose of 3 mg/kg. There were 5 mice in each group of the control group or the administration group. The tumor inhibition rate was calculated by measuring the tumor volume.

Experiment [3] concerns lung cancer Calu-3 tumor cell transplant mouse model. Kind of experiment: In vivo efficacy, Calu-3 transplant mouse model. Particulars: Calu-3 xenograft, 10 mg/kg IV single dose, day 21. How it is done: In order to further study the inhibitory effect of antibody-drug conjugate on tumors formed in vivo, the Trop-2 positive tumor cell lung cancer Calu-3 tumor cell transplant mouse model was used to evaluate the inhibitory effect of candidate molecule on tumor proliferation in vivo. The cell suspension mixed with Matrigel in equal proportions was added, and 2×10^6 Calu-3 cells per animal were injected subcutaneously into 6-week-old nude mice (Balb/c Nude) weighing about […]. After 8 days, the average tumor volume reached 148 mm^3 and grouping was performed, and the antibody-drug conjugate was started to be injected intravenously at a single dose of 10 mg/kg. The control used human IgG1 isotype control antibody at a dose of 10 mg/kg. There were 5 mice in each group of the control group or the administration group. The tumor inhibition rate was calculated by measuring the tumor volume.

This note sets out measurements from patent US20240390509A1, “ANTIBODY-DRUG CONJUGATE, PREPARATION METHOD THEREFOR, AND PHARMACEUTICAL USE THEREOF” (SHANGHAI HANSOH BIOMEDICAL CO., LTD., priority 2021, published 2024).

B1: DS-1062-compound D (y = 4) (conjugate, chains of the INN, looked up)
VH: QVQLVQSGAEVKKPGASVKVSCKASGYTFTTAGMQWVRQAPGQGLEWMGWINTHSGVPKYAEDFKGRVTISADTSTSTAYLQLSSLKSEDTAVYYCARSGFGSSYWYFDVWGQGTLVTVSS
VL: DIQMTQSPSSLSASVGDRVTITCKASQDVSTAVAWYQQKPGKAPKLLIYSASYRYTGVPSRFSGSGSGTDFTLTISSLQPEDFAVYYCQQHYITPLTFGQGTKLEIK
modifications: compound D drug conjugate
As to B1, in experiment [1], the Tumor inhibition rate was determined as 78.2%.

B2: DS-1062 (conjugate, chains of the INN, looked up)
VH: B1 VH
VL: B1 VL
modifications: deruxtecan payload
B2: the values for the Tumor inhibition rate in experiment [2] (1 mg/kg IV single dose), in experiment [2] (3 mg/kg IV single dose) and in experiment [3] were 74.8%, 200% and 85.61%, respectively.
